Results on two proteins are retold here after publication PMC11787620 (iScience, 2025).

This data set concerns the molecule itself. Briefly: SEC. For orientation: Size exclusion chromatography separates by hydrodynamic size, large species first.

The term stoichiometry N denotes a count of units in the complex or per binding partner.

B1: LexAPaS125A (full-length P. aeruginosa LexA carrying the S125A mutation in the catalytic dyad) (natural protein, Pseudomonas aeruginosa (ATCC 27853), UniProt P37452 1-204, looked up)
chain: MQKLTPRQAEILSFIKRCLEDHGFPPTRAEIAQELGFKSPNAAEEHLKALARKGAIEMTPGASRGIRIPGFEPHAANDDEGLPVIGRVAAGAPILAEQNIEESCRINPAFFNPRADYLLRVRGMAMKDIGILDGDLLAVHVTREARNGQVVVARIGEEVTVKRFKREGSKVWLLAENPEFAPIEVDLKEQELIIEGLSVGVIRR
Consider B1, for which the “stoichiometry N” value was determined as 2.

B2: LexAPa^CTD G91D (LexAPa C-terminal domain, Gly81 to Arg204, with the inactivating G91D mutation on the cleavage site) (domain or fragment, Pseudomonas aeruginosa (ATCC 27853), UniProt P37452 81-204, looked up)
chain: GLPVIGRVAADAPILAEQNIEESCRINPAFFNPRADYLLRVRGMSMKDIGILDGDLLAVHVTREARNGQVVVARIGEEVTVKRFKREGSKVWLLAENPEFAPIEVDLKEQELIIEGLSVGVIRR
For B2, the “stoichiometry N” value came to 2.
